Molecular target: T1, human B7-H3 protein expressed on transfected 293 cells (human, UniProt Q5ZPR3 29-534)
T1 construct: also called B7-H3/293 cells
T1 sequence: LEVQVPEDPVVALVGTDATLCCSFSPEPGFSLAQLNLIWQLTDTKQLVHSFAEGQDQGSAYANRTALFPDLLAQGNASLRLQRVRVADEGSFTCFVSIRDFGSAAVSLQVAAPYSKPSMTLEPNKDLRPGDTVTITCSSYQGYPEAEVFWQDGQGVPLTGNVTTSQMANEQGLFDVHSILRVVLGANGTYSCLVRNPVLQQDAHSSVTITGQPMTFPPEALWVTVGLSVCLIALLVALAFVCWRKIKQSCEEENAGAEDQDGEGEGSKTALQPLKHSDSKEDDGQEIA
Test: FACS on 293 cells transfected with B7-H3
Source text: It has been reported that both CTLA-4 nd ICOS can be induced to express on the surface of activated T cells, while CD28 expresses constitutively.

binding result: no binding
B1: ICOSIg (Fc fusion, UniProt Q9Y6W8 21-140, looked up)
chain: EINGSANYEMFIFHNGGVQILCKYPDIVQQFKMQLLKGGQILCDLTKTKGSGNTVSIKSLKFCHSQLSNNSVSFFLYNLDHSHANYYFCNLSIFDPPPFKVTLTGGYLHIYESQLCCQLK
notes: extracellular domain; not shown: Fc constant region of mouse IgG2a, inferred from 'similar methods'
